From patent US7943569B2, “Composition and method for providing localized delivery of a therapeutic agent” (The Board of Trustees of the University of Illinois, priority 2005, dated 2011)
Like-named read-outs stand apart in the source and are kept apart here. Primed or numbered codes have the meaning given here. Ends that are not written are not given here. * marks the point of attachment. fluorescein = Lys* = fluorescein containing lysine; fluorescein″ = fluorescein-labelled lysine (Lys*)

Legend:
[1] = tested on: malignant glioma cell line (U-87MG); assay: Cell viability of U-87MG glioma cells, modified MTT assay, 24 hours; assay type: cell-based; conditions: U-87MG cell viability (FIG. 1)
Procedure: As a model for cancer, the malignant glioma cell line (U-87MG, ATCC #HTB-14) was grown and maintained in Eagles Minimum Essential Media with 10% fetal bovine serum, 1% penicillin/streptomycin, sodium pyruvate (110 mg/L), L-Glutamine (292 mg/L), and nonessential amino acids at 37° C. in 5% CO2. One day prior to the test, cells were plated at 50,000 cells/mL in supplemented media on 96-well plates. Peptides at different concentrations were incubated with cells for 24 hours. Cell viability, with respect to the untreated control, was determined using a modified MTT assay (CELL TITER […] 96® Aqueous One Solution Cell Proliferation Assay; PROMEGA, Madison, Wis.) (Barltrop, et al. (1991) Bioorg. Med. Chem. Lett. 1:661).
To synthesize Pt-complexes, peptides were dissolved in water and equimolar amounts of potassium tetrachloroplatinate (K2PtCl4) (Acros Organics, Morris Plains, N.J.) were added to each peptide solution. The solutions were stirred for 20 hours and lyophilized.

[2] = molecular target: T1, MMP-2 (Homo sapiens, UniProt P08253); conditions: MMP-2, Turk et al. (2001); cited from earlier work
T1 construct: purchased CALBIOCHEM (San Diego, Calif.)
T1 sequence (P08253 110-660): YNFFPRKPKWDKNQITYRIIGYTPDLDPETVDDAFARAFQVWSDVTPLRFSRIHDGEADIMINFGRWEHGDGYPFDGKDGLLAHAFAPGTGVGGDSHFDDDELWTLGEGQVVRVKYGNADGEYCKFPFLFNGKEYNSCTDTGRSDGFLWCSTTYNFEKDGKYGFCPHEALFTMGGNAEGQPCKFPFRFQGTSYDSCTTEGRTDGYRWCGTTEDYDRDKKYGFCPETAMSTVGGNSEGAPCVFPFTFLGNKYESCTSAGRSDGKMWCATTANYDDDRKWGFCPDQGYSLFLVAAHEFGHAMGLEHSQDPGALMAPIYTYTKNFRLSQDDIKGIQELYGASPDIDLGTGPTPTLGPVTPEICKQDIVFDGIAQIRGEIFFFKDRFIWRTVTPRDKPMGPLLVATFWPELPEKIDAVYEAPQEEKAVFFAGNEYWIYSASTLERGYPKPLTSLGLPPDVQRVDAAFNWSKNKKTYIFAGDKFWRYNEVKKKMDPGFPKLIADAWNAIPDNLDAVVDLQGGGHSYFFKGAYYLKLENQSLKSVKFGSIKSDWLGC

[3] = molecular target: T2, MMP-9 (Homo sapiens, UniProt P14780); assay: Peptide cleavage by activated MMP-9, HPLC; assay type: biochemical; conditions: for Km / Vmax / kcat: MMP-9 10 nM, protease buffer pH 7.4
T2 construct: purchased CALBIOCHEM (San Diego, Calif.)
Procedure: (§1) Prospective MMP substrate peptides, Lys*-Pro-Ala-Gly-Leu-Leu-Gly-Cys (SEQ ID NO:2), Lys*-Ala-Gly-Leu-Leu-Cys (SEQ ID NO:32), and Lys*-Gly-Leu-Cys (SEQ ID NO:33), were dissolved in a protease buffer containing Tris-HCl (50 mM), NaCl (0.2 M), CaCl2.2H2O (10 mM), BRIJ-35 (0.05%) and ZnSO4.7H2O (50 μM) (pH=7.4). Activated MMP-2 or MMP-9 was added to the peptide solution at a final concentration of 10 nM. At predetermined time intervals, the reaction was stopped by adding EDTA solution (25 mM). Samples were analyzed using reverse phase high pressure liquid chromatography (HPLC). The HPLC system was composed of a gradient pump connected to a scanning fluorescence detector and a photodiode array detector. Peptides were separated on a ZORBAX Extend-C18 (80 Å, 3.6 μm, 4.6 mm×150 mm) column (Agilent Technologies, Palo Alto, Calif.) using a gradient of 30%-70% of 0.1% trifluoroacetic acid in acetonitrile against 0.1% trifluoroacetic acid in water over a period of 15 minutes at a flow rate of 1 mL/minute. The expected cleaved fragments, Lys*-Pro-Ala-Gly (SEQ ID NO:34), Lys*-Ala-Gly, and Lys*-Gly, were synthesized to confirm HPLC retention times. The HPLC retention time of each fragment was compared to that of the cleaved fragment and the intact peptide using the HPLC conditions described above.

[4] = molecular target: T1, MMP-2; assay: Peptide cleavage by activated MMP-2, HPLC; assay type: biochemical; conditions: for Km / Vmax / kcat: MMP-2 10 nM, protease buffer pH 7.4
Procedure: as §1

T2 sequence (P14780 107-707 limits assumed): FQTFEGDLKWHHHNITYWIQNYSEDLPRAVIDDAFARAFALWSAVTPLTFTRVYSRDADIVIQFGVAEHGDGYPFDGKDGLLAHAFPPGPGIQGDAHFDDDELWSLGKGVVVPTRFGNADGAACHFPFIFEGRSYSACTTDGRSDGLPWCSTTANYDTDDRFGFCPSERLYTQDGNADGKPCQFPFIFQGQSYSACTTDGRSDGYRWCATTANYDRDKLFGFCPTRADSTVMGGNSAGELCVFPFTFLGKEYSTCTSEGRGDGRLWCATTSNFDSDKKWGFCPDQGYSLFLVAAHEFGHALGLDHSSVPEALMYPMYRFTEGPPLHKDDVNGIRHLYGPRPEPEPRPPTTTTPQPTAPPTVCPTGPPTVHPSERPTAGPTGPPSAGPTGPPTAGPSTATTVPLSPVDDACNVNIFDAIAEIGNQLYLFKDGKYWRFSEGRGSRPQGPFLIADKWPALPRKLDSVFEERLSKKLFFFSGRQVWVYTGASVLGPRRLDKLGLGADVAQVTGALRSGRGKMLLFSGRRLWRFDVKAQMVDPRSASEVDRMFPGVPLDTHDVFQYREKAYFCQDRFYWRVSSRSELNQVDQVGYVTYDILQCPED

Compound | IC50 [1] | cleavage site [2] | Km [3] | Vmax [3] | kcat [3] | Km [4] | Vmax [4] | kcat [4] | cleavage site ([3]; cleaved by MMP-9, HPLC comparison with synthesized fragment) | cleavage site ([4]; cleaved by MMP-2, HPLC comparison with synthesized fragment)
[Cl][Pt-2]([Cl])([Cl])[Cl].[K+].[K+] [K2PtCl4, potassium tetrachloroplatinate] | 70.7 ± 15 µM | – | – | – | – | – | – | – | – | –
N.N.[Cl][Pt][Cl] [cisplatin] | 46.9 ± 15 µM | – | – | – | – | – | – | – | – | –
GPAGLLG [parent peptide from which the three peptides were designed] | – | cleaved between glycine and leucine | – | – | – | – | – | – | – | –
Lys*-Ala-Gly-Leu-Leu-Cys (K(fluorescein)AGLLC) [prospective MMP substrate peptide with fluorescein containing lysine (Lys*)] | – | – | 160 ± 100 µM | 0.99 ± 0.2 (M/s) × 10^−9 | 0.04 ± 0.01 s⁻¹ | 1400 ± 400 µM | 6.02 ± 2.1 (M/s) × 10^−9 | 0.24 ± 0.08 s⁻¹ | – | –
Lys*-Gly-Leu-Cys (K(fluorescein″)GLC) [prospective MMP substrate peptide with fluorescein containing lysine (Lys*)] | – | – | 600 ± 100 µM | 5.3 ± 1 (M/s) × 10^−9 | 0.21 ± 0.04 s⁻¹ | 81 ± 20 µM | 0.88 ± 0.1 (M/s) × 10^−9 | 0.035 ± 0.006 s⁻¹ | – | –
Lys*-Pro-Ala-Gly-Leu-Leu-Gly-Cys (K(fluorescein)PAGLLGC) [prospective MMP substrate peptide with fluorescein containing lysine (Lys*)] | – | – | 400 ± 100 µM | 240 ± 50 (M/s) × 10^−9 | 9.6 ± 2.1 s⁻¹ | 1000 ± 500 µM | 270 ± 120 (M/s) × 10^−9 | 10.7 ± 4.8 s⁻¹ | cleaved between glycine and leucine | cleaved between glycine and leucine
